Publication PMC3741624

Target: human plasma fibronectin, manually deposited single Fn fibers (human)

| Substance | ratio of ALP positive hMSCs on stretched Fn fibers after 7 days with the function-blocking antibody against α5β1 (clone JBS5), against no antibody | ratio of ALP positive hMSCs on relaxed Fn fibers after 7 days with the function-blocking antibody against αvβ3 (clone 23C6), against no antibody |
| --- | --- | --- |
| integrin α5β1 (from UniProt P08648 42-1049; P05556 21-798) (receptor) | 31% | – |
| integrin αvβ3 (from UniProt P06756 31-1048; P05106 27-788) (receptor) | – | 30% |
